Substrate in the series: NC(=O)C1=CN([C@@H]2O[C@H](COP(=O)(O)OP(=O)(O)OC[C@H]3O[C@@H](n4cnc5c(N)ncnc54)[C@H](O)[C@@H]3O)[C@@H](O)[C@H]2O)C=CC1
The series is described as follows: purified protein. Format: biochemical, Streptococcus pneumoniae. As to conditions: 100 µM bovine cytochrome c, 0.1 µM SpNOX, 1 µM FAD, 50 mM Tris pH 7.0, 250 mM NaCl, room temperature, aerobic.

B1: SpNOX (Streptococcus pneumoniae NOX) (Streptococcus pneumoniae R6) (protein)
chain: EFSMKSVKGLLFIIASFILTLLTWMNTSPQFMIPGLALTSLSLTFILATRLPLLESWFHSLEKVYTVHKFTAFLSIILLIFHNFSMGGLWGSRLAAQFGNLAIYIFASIILVAYLGKYIQYEAWRWIHRLVYLAYILGLFHIYMIMGNRLLTFNLLSFLVGSYALLGLLAGFYIIFLYQKISFPYLGKITHLKRLNHDTREIQIHLSRPFNYQSGQFAFLKIFQEGFESAPHPFSISGGHGQTLYFTVKTSGDHTKNIYDNLQAGSKVTLDRAYGHMIIEEGRENQVWIAGGIGITPFISYIREHPILDKQVHFYYSFRGDENAVYLDLLRNYAQKNPNFELHLIDSTKDGYLNFEQKEVPEHATVYMCGPISMMKALAKQIKKQNPKTELIYEGFKFK
notes: residues 2-400, N-terminal 6xHis-PreScission tag cleaved, E. coli C41(DE3), LMNG micelles, monomer, 46 kDa, two b-type hemes and FAD
As usually defined, the Km is the substrate concentration at which the rate is half of its maximum. A word on the kcat: it is the maximal rate divided by the concentration of active sites. Regarding B1, the Km was 3.41 µM and the turnover number (kcat) is 3.33 s⁻¹.

For the origin of these results see paper PMC11564096, “Structural and mechanistic insights into Streptococcus pneumoniae NADPH oxidase” (Nature Structural & Molecular Biology, 2024).
